This note sets out measurements from patent publication US20230382948A1, “DELIVERY OF ENDOTHELIAL CELL-LADEN MICROGEL ELICITS ANGIOGENESIS IN SELF-ASSEMBLING ULTRASHORT PEPTIDE HYDROGELS” (KING ABDULLAH UNIVERSITY OF SCIENCE AND TECHNOLOGY, priority 2020, published 2023).

One data set can be described thus: pH of peptide solutions. The data set is classed as physicochemical. The conditions noted are these: for pH of the peptide solution: 5 mg/mL in Milli-Q water; for pH of the peptide solution after the addition of PBS: 5 mg/mL. The procedure: The preweighed (as per the required final concentration) peptide powder was dissolved in 0.9 mL of Milli-Q® water in a glass vial. The solution was vortexed for 5-10 s to obtain a clear and homogeneous solution. To this peptide solution, 0.1 mL of PBS buffer (10×, w/o Ca^2+ and Mg^2+) was added. To ensure a homogeneous distribution of buffer in the solution, the glass vial was further vortexed for 2-3 s. The glass vial was kept undisturbed on the bench, and hydrogel formation was observed using the vial inversion method, as shown in FIG. 9. The pH of the solutions of IVFK (SEQ ID NO. 1) and IVZK (SEQ ID NO. 2) was 5.57 and 5.48 at a 5 mg/mL concentration, respectively. After the addition of PBS, the pH changed to 7.7 and 7.6 for IVFK (SEQ ID NO. 1) and IVZK (SEQ ID NO. 2), respectively. The pH of the Milli-Q® water and phosphate buffer used was 6.7 and 7.4, respectively.

The subject of the next data set is fibroblasts (HDFn). Nature of the data set: Cell culture on microgels, HDFn. It counts as cell-based, human. As to conditions: first 24 h of culture. On the procedure: A 1.2×10^6 amount of cells suspended in 4 mL of complete cell culture media (300,000 cells/mL) was mixed with 200 μL of microgels by pipetting. The mix was seeded at […] in a 24-well low binding plate and kept at 37° C., 95% humidity, and 5% CO2 under rocker conditions at 30 rpm for 24 h. Then, cell-laden microgels were transferred into a tube by pipetting and spun down at 50 g for 5 min. The upper layer, containing cells not adherent to the microgels, was discarded. At this moment, cell-laden microgels were either resuspended with complete cell culture media to continue cell culture under rocker conditions or processed for staining.
The cell-laden microgels were fixed with 4% formaldehyde (v/v) in PBS and incubated for 30 min at 22° C. Later, formaldehyde was removed by centrifugation, and cell-laden microgels were washed twice with PBS in a similar way. Permeabilization buffer (6.3 mM MgCl2, 233.7 mM sucrose, 0.5% (v/v) Triton® X-100 in PBS) was kept at −20° C. and thawed just before use. […]
Proliferative cells were labeled by incubating cell-laden microgels with […] EdU in complete medium for 24 h in rocking culture at 30 rpm. […] EdU was detected following the manufacturer instructions by incubating cell-laden microgels with a Click-iT Plus reaction cocktail for 30 min at 22° C. protected from light. […]

Take “Ac-Ile-Val-Phe-Lys-NH2 (Ac-IVFK-NH2) [self-assembling ultrashort tetrapeptide, forms hydrogels and microgels]”: in “pH of peptide solutions”, the “pH of the peptide solution” value is reported as 5.57 and the “pH of the peptide solution after the addition of PBS” value worked out at 7.7. In addition, the “HDFn cell adhesion and morphology on microgels” value in the data set with fibroblasts (HDFn) is “cell adhesion and stretched morphology”.

In the case of “Ac-Ile-Val-Cha-Lys-NH2 (IVXK; HELM PEPTIDE1{[ac].I.V.[Cha].K.[am]}$$$$V2.0; SMILES CC[C@H](C)[C@H](NC(C)=O)C(=O)N[C@H](C(=O)N[C@@H](CC1CCCCC1)C(=O)N[C@@H](CCCCN)C(N)=O)C(C)C) [IVZK, self-assembling ultrashort tetrapeptide, Z = cyclohexylalanine, forms hydrogels and microgels]”, in “pH of peptide solutions”, the “pH of the peptide solution” value stood at 5.48 and the “pH of the peptide solution after the addition of PBS” value was 7.6. In addition, in the data set with fibroblasts (HDFn), the “HDFn cell adhesion and morphology on microgels” value was “cell adhesion and stretched morphology”.
